According to IntAct's records for PubMed 16839886:

B1: Guanine nucleotide-binding protein alpha-1 subunit (Saccharomyces cerevisiae), P08539 (parent)
chain: MGCTVSTQTIGDESDPFLQNKRANDVIEQSLQLEKQRDKNEIKLLLLGAGESGKSTVLKQLKLLHQGGFSHQERLQYAQVIWADAIQSMKILIIQARKLGIQLDCDDPINNKDLFACKRILLKAKALDYINASVAGGSDFLNDYVLKYSERYETRRRVQSTGRAKAAFDEDGNISNVKSDTDRDAETVTQNEDADRNNSSRINLQDICKDLNQEGDDQMFVRKTSREIQGQNRRNLIHEDIAKAIKQLWNNDKGIKQCFARSNEFQLEGSAAYYFDNIEKFASPNYVCTDEDILKGRIKTTGITETEFNIGSSKFKVLDAGGQRSERKKWIHCFEGITAVLFVLAMSEYDQMLFEDERVNRMHESIMLFDTLLNSKWFKDTPFILFLNKIDLFEEKVKSMPIRKYFPDYQGRVGDAEAGLKYFEKIFLSLNKTNKPIYVKRTCATDTQTMKFVLSAVTDLIIQQNLKKIGII
partner: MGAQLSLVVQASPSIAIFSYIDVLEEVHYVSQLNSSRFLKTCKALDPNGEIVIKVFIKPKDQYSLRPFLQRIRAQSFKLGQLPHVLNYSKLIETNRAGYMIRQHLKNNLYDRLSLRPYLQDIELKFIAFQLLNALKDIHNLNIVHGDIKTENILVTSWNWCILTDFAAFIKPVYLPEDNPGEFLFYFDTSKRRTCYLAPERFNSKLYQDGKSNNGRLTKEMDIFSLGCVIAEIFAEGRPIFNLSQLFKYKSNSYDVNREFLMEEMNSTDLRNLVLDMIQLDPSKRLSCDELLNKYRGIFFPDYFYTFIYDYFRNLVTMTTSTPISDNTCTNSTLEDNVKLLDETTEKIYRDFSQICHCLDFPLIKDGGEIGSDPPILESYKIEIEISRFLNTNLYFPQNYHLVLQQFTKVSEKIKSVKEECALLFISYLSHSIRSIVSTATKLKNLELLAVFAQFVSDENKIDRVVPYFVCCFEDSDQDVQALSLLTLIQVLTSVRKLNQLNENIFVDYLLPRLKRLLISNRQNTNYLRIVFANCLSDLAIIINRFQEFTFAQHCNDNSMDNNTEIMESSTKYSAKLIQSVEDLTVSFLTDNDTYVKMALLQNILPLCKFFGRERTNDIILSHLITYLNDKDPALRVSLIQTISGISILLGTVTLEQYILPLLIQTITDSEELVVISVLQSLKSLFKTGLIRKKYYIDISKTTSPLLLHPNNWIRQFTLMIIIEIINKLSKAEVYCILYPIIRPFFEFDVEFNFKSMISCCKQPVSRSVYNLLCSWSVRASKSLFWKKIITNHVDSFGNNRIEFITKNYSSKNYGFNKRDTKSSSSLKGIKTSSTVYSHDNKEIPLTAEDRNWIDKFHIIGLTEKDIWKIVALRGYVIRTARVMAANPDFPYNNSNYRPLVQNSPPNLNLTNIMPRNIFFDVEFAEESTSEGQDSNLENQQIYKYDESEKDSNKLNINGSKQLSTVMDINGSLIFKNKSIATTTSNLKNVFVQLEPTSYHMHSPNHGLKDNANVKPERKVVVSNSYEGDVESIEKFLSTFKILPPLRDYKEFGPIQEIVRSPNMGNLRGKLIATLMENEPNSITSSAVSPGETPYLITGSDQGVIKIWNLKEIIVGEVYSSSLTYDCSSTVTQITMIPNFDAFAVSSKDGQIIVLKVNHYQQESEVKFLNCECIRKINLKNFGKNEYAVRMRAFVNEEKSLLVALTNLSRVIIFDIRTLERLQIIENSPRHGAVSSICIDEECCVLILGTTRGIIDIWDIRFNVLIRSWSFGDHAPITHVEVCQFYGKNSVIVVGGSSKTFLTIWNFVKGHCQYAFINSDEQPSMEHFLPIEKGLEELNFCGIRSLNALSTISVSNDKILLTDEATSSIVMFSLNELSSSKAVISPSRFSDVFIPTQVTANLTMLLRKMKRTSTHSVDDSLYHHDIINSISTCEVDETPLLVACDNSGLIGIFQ

Variants of: B1
Conditions: with vps15_yeast VPS15, P22219

Row | effect of a mutation on the interaction | Variant
1 | decreasing interaction | Q323L
